In patent US20220177583A1 one finds EC50, FACS signal and Kd data, which are given here for 21 molecules.

Positions count from the first letter of the chain named.

Sequences and labels used below:
B1: AB7 (antibody, V domains shown)
VH: EVQLQQSGPELVKPGASMKISCKASGYSFTGYTMNWVKQSHGKNLEWIGLINPYNGGTNYNQKFKGKATLTVDKSSSTAYMELLSLTSEDSAVYYCARGVYDYDGFTYWGQGTLVTVSA
VL: QIVLTQSPAIMSASLGDRVTMTCTASSSVSSSYLHWYQQKPGSSPKLWIYSTSNLASGVPARFSGSGSGTSYSLTISSMEAEDAATYYCHQYHRSPPTFGSGTKLEIK
B2: AB17 (antibody, V domains shown)
VH: QVQLQQSGAELAKPGASVKMSCKASGYTFTGYWMHWVKQRPGQGLEWLGYINPSTGYTESNQKFKDKATLTADKSSTTAYMQLRSLTPEDSAVYYCAREGITTVLVDYWGQGTTLTVSS
VL: B1 VL with D17E, S101A, I107L
B3: AB11 (antibody, V domains shown)
VH: DVQLVESGGGLVQPRGSRKLSCAASGFTFSSFGMHWVRQAPEKGLEWVAYISSDSRTIYYADTVKGRFTISRDNPTNTLFLQMTSLRSEDTAMYYCARDYGRTYEAYWGQGTLVTVSA
VL: DIVLTQSPASLAVSLGQRATISCRASKSVSTSGYSYIHWYQQKPGQPPKLLIYLASNLESGVPARFSGSGSGTDFTLNIHPVEEEDAATYYCQHSRELPLTFGAGTKLELK
B4: AB15 (antibody, V domains shown)
VH: B3 VH
VL: NIMMTQSPSSLAVSAGEKVTMSCKSSQSVLFSSNQKNYLAWYQQKPGQSPRLLIYWASTRESGVPDRFTGSGSGTDFTLTISNVQAEDLAVYYCHQYLSSRTFGAGTKLELK
B5: AB5 (antibody, V domains shown)
VH: EVQLQQSGPELVKPGASVKMSCKASGYIFTHYIMHWVKQKPGQGLEWIGCINPYNDGTKYNEKFKGKATLTSDKSSSTAYMELSSLTSEDSAVYYCARYYGYPYYSMDYWGQGTSVTVSS
VL: DVLMTQTPLSLPVSLGDQPSISCRSSQSIVHSNGNTYLDWYLQKPGQSPKLLIYKVSNRFSGVPDRFSGSGSGTDFTLKISRVEAEDLGVYYCFQGSHVPFTFGSGTRLEIK
B6: AB9 (antibody, V domains shown)
VH: EVQLQQSGPELVKPGASVKMSCKASGYRFTDYNMHWVKQSHGKSLEWIGYINPNNGGTNYNQNFKGKATLTVNKSSSTAYMELRSLTSEDSAAYYCARDYLYFFDCWGQGTTLTVSS
VL: DIQMTQSPASQSASLGESVTITCLASQTIGTWLAWYQQKPGKSPQLLIYAAASLADGVPSRFSGSGSGTRFSFKISSLQAEDFVSYYCQQLYSIPRTFGGGTKLEIK
B7: AB14 (antibody, V domains shown)
VH: QVQLQQSGPELVRPGVSVKISCKGSGYTFTDYAMHWVKQSHAKSLEWIGVISTYSGNTNYNQKFQDKATMTVDKSSSTAYMALARLTSDDSAIYYCARRGDYSLYAMDYWGQGTSVTVSS
VL: DIVLTQSPASLAVSLGQRATISCKASQSVDYDGDNYVNWYQQKVGQPPKLLISAASNLESGIPARFSGSGSGTDFTLNIHPVEEEDAATYYCQQSNEDPFTFGSGTKLEIK
B8: AB12 (antibody, V domains shown)
VH: EVKLMESGGDLVKPGGSLKLSCAASGFTFSSYAMSWVRQTPEKRLEWVASIRSGGTTYYPDSVKGRFTISRDNARNILYLRMSSLRSEDTAIYYCAKVGGNPYPMDYWGQGTSVTVSS
VL: DIQMIQSPSSMFASLGDRVSLSCRASQDIGGNLDWYQQKPGGTIKLLIYSTSNLNSGVPSRFSGSGSGSDYSLTITSLESEDFADYYCLQRNAYPLTFGAGTKLELK
B9: AB18 (antibody, V domains shown)
VH: QVQLKQSGPELEKPGASVKISCKASGYSFTGYNMNWVKQSNGKSLEWIGNIDPYYGGSTYNQKFTGKATLTVDKSSSTAYMQLKSLTSEDSAVYYCARERSGYVFSAMDYWGQGTSVTVSS
VL: B4 VL
B10: AB19 (antibody, V domains shown)
VH: EVQLQQSGPELVKPGGSMKISCKASGYSFTGYTMNWVKRSHGKNLEWIGLINPYNGVTTYNQNFKGKATLAVDKSSSTAYMELLGLTSEDSAVYYCTRDPLYYGYRDSTMDYWGQGTSVTVSS
VL: B4 VL
B11: AB10 (antibody, V domains shown)
VH: QIQLVQSGPALKKPGETVKISCKASGYTFTDYSMHWIKQAPGKGLKWMGWISTETGEPTYADGFKGRFDFSLETSADTAYLSINNLTNEDTATYFCTRGLWSSFAYWGQGTLVTVSA
VL: DVVMTQTPLSLPVSLGDQASISCRASQSLVHSNGNTYLHWFLQKPGQSPKLLIYKVSNRFSGVPDRFSGSGSRTDFTLKISRVEAEDLGVYFCSQITHVPYTFGGGTKLEIK
B12: AB13 (antibody, V domains shown)
VH: QVQLQQSGAELVRPGTSVKVSCKASGYAFSNYLIEWVKQRPGQGLEWIGVINPGSGGTNYNEKFKGKATMTADKSSSTAYMHLSNLTSEDSVVYFCARSYFGRSYPYTMDYWGQGTSVTVSS
VL: EIVLTQSPTTMAASPGEKITITCSASSSISSNYLHWYQQKPGFSPKLLIYRTSNLASGVPARFSGSGSGTSYSLTIGTMEAEDVATYYCQQGSSIPLTFGAGTKLELK
B13: AB6 (antibody, V domains shown)
VH: DVQLQESGPGLVKSSQSLSLTCSVTGYSITSGYYWKWIRQFPGNKLEWMGYISYDGGINYNPSLKNRISITRDTSKNQFFLKLNSVTTEDTAKYYCARFGKGAMDYWGQGTSVTVSS
VL: AIVMFQSPSSLVVSAGEKVTMSCKSSQSLLNSRTRKNYLAWYQQKPGQSPKLLIYWASTRESGVPDRFTGSGSGTDFTLTISSVQAEDLAVYYCKQSYYLYTFGGGTKLEIK
B14: AB3-7 (antibody, V domains shown)
VH: EVQLLESGGGLVQPGGSMRLSCAASGFTFSNYWMNWVRQAPGKGLEWVAQIRLKSDNYATHYADSVKGRFTISRDDSKNTVYLQMNSLRAEDTGVYYCNDGPPSGSWGQGTLLTVSS
VL: DIQMTQSPSSLSASVGDRVTITCRISENIYSYLAWYQQKPGKAPKLLVYNAKILVEGVPSRFSGSGSGTDFTLTISSLQPEDFGTYYCQHHYTVPWTFGQGTKLEIK
B15: AB3-7 conjugated to MC-VC-PAB-MMAE (conventional) (antibody, V domains shown)
VH: B14 VH
VL: B14 VL
modifications: MC-VC-PAB-MMAE conjugated to the antibody, heterogeneous (conventional); sites not stated
B16: AB3-7 conjugated to MC-VC-PAB-DXD (antibody, V domains shown)
VH: B14 VH
VL: B14 VL
modifications: MC-VC-PAB-DXD conjugated to the antibody; sites not stated
B17: AB3-7 conjugated to MC-VC-PAB-MMAE (D4 technology) (antibody, V domains shown)
VH: B14 VH
VL: B14 VL
modifications: MC-VC-PAB-MMAE conjugated to the antibody, substantially 4 drugs per antibody (D4); sites not stated
B18: AB3-7 conjugated to CL2A-SN38 (D4 technology) (antibody, V domains shown)
VH: B14 VH
VL: B14 VL
modifications: CL2A-SN38 conjugated to the antibody (D4); sites not stated
B19: AB3-7 conjugated to MC-GGFG-MMAE (D4 technology) (antibody, V domains shown)
VH: B14 VH
VL: B14 VL
modifications: MC-GGFG-MMAE conjugated to the antibody (D4); sites not stated
B20: AB3-7 conjugated to MC-GGFG-DXD (antibody, V domains shown)
VH: B14 VH
VL: B14 VL
modifications: MC-GGFG-DXD conjugated to the antibody; sites not stated
B21: AB3-7 conjugated to CL2A-SN38 (conventional) (antibody, V domains shown)
VH: B14 VH
VL: B14 VL
modifications: CL2A-SN38 conjugated to the antibody, heterogeneous (conventional); sites not stated

For the first assay, the target named is CLDN3/4 endogenously expressed on LS513 and MCF7 cells. Put plainly: FACS dose curve, labelled mAb, MCF7 cells.
By EC50 is commonly meant the concentration that produces a half-maximal response. Low values mean greater potency, high ones weaker potency. Take B1: the EC50 was 979 nM.

In turn, B2 yielded an EC50 of 5000 nM.

Take B3: the EC50 was determined as 427 nM. Compared with the last molecule, the EC50 is about 12-fold lower.

The molecule B4 had an EC50 of 5000 nM.

B5 showed an EC50 of 1480 nM. Compared with the last molecule, the EC50 is about 3.4-fold lower.

On to B6, for which the EC50 stood at 5000 nM.

Turning to B7, the concentration giving a half-maximal response (EC50) was found to be 546 nM.

Molecule B8 showed an EC50 of 5000 nM.

With B9, the EC50 was found to be 5000 nM.

Molecule B10 returned an EC50 of 5000 nM.

Turning to B11, the EC50 amounted to 5000 nM.

Molecule B12 came in with an EC50 of 5000 nM. In other words, the single-digit micromolar range.

In turn, B13 came in with an EC50 of 1140 nM.

For the next assay the target is unchanged. Put plainly: FACS dose curve, labelled mAb, LS513 cells.
Consider B1, for which the EC50 amounted to 635 nM.

With B2, the EC50 was 5000 nM.

In turn, B3 showed an EC50 of 493 nM.

The molecule B4 showed an EC50 of 5000 nM.

For B5, the EC50 was determined as 781 nM.

Turning to B6, the EC50 was 1040 nM.

The molecule B7 registered an EC50 of 1160 nM.

B8 came in with a concentration for a half-maximal effect (EC50) of 2270 nM. Against the preceding molecule, the EC50 is about 2-fold higher.

In the case of B9, the EC50 is 5000 nM.

Turning to B10, the EC50 is 5000 nM.

In turn, B11 registered an EC50 of 1950 nM. Compared with the last molecule, the EC50 is about 2.6-fold lower.

B12: the EC50 is 1590 nM.

In the case of B13, the EC50 came to 133 nM.

The target in a further assay is human CLDN6 fused to GFP, expressed on engineered HEK293T cells (human) (UniProt P56747). Kind of assay: FACS, 293T clone with human CLDN6, 0.3 ug Ab.
As for B14, the FACS signal amounted to 106000.

The next assay has the same target. Put plainly: FACS, 293T clone with human CLDN6, 1.5 ug Ab.
B14 registered an FACS signal of 169000.

Another assay has the same target. Put plainly: FACS dose curve, labelled mAb, HEK293T-CLDN6-mGFP cells.
The molecule B1 had a concentration giving a half-maximal response (EC50) of 579 nM.

Molecule B2 showed an EC50 of 2650 nM.

Take B3: the EC50 is 1700 nM.

The molecule B4 showed an EC50 of 5000 nM. Against the preceding molecule, the EC50 is about 2.9-fold higher.

Molecule B5 returned an EC50 of 10 nM.

B6 returned an EC50 of 2670 nM. Against the preceding molecule, the EC50 is about 270-fold higher.

As for B7, the EC50 is 5000 nM.

For the molecule B8, the EC50 amounted to 5000 nM.

B9 had an EC50 of 5000 nM.

B10: the EC50 stood at 5000 nM.

Regarding B11, the EC50 came out at 2760 nM.

B12: the EC50 worked out at 5000 nM.

B13 had an EC50 of 1430 nM. This EC50 is about 3.5-fold lower than that of the molecule before.

The next assay has the same target. Kind of assay: KinExA 4000, cell-based equilibrium titration; Cell Model HEK293T CLDN6-mGFP A11, Cells Detached by Versene; Equilibrium Curves 500pM, 10nM. (A kinetic exclusion assay measures how much of one partner remains free in solution.)
One may read the Kd as the constant that tells how readily two partners part at equilibrium. In the case of B15, the Kd is 6.68 nM.

In turn, B16 gave a Kd of 3.42 nM.

Regarding B17, the Kd amounted to 5.34 nM.

As for B18, the Kd amounted to 2.87 nM.

The molecule B19 came in with a Kd of 1.01 nM.

On to B14, for which the Kd turned out to be 1.13 nM.

Molecule B20 had a Kd of 3.01 nM.

Consider B21, for which the Kd was 1.91 nM. This Kd is about 1.6-fold lower than that of the molecule before.
